# Biological target: the molecule itself
# Test: SEC; gel filtration on a Sephadex 100 (G-100) size exclusion column; 20 mM HEPES, 10% glycerol, 150 mM NaCl, pH 7.8, 0.014% Fos-Choline-14; immunoglobulin of 150 kDa as reference for the tetrameric fraction
protein,measurement,value
"Δ1–854 hTRPA1 (human TRPA1 without its N-terminal ankyrin repeat domain and transmembrane segments S1–S4) (domain or fragment, UniProt O75762 855-1119, looked up, keeps most of the S4-S5 linker (N855, C856), S5-S6 and the C-terminal domain; gene optimised for expression in insect cells; the vector pTriEx-3 is named; The tetramer is by gel filtration; a smaller monomeric fraction eluted as well; also called S1–S4 transmembrane domain deleted hTRPA1) NCGIFIVMLEVILKTLLRSTVVFIFLLLAFGLSFYILLNLQDPFSSPLLSIIQTFSMMLGDINYRESFLEPYLRNELAHPVLSFAQLVSFTIFVPIVLMNLLIGLAVGDIAEVQKHASLKRIAMQVELHTSLEKKLPLWFLRKVDQKSTIVYPNKPRSGGMLFHIFCFLFCTGEIRQEIPNADKSLEMEILKQKYRLKDLTFLLEKQHELIKLIIQKMEIISETEDDDSHCSFQDRFKKEQMEQRNSRWNTVLRAVKAKTHHLEP",stoichiometry N,4
